Molecular target: IL6 receptor on human multiple myeloma U266 cells (human) (UniProt P08887)
Experiment: cell-based or functional assay

IL6 receptor on human multiple myeloma U266 cells (human), sequence (P08887 20-468): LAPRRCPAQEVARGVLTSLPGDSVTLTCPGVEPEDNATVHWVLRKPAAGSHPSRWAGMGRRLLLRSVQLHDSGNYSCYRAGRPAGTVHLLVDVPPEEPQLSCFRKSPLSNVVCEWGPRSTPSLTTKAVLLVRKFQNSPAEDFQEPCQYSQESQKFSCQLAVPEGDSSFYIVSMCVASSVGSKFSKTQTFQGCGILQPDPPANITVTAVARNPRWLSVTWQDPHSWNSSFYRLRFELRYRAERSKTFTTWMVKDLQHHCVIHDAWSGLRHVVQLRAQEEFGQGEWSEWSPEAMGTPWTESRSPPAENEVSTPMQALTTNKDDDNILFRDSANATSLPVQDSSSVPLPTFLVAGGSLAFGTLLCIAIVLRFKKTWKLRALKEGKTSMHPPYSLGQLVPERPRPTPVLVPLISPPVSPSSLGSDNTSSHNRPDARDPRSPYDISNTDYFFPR

inhibition percentage of control of STAT3 phosphorylation in U266 cells, antibody at 0.05 µg/ml: 0%
inhibition percentage of control of STAT3 phosphorylation in U266 cells, antibody at 0.5 µg/ml: 17%
Substance: Actemra, an anti-IL6 receptor humanized antibody
